Reference: patent US20150315607A1 (ACADEMIA SINICA, published 2015)

T1: CYN1-EAT1 (Oryza sativa (rice), UniProt Q7X8R0 1-464)
T1 construct: BiFC construct expressed in rice protoplasts
T1 sequence: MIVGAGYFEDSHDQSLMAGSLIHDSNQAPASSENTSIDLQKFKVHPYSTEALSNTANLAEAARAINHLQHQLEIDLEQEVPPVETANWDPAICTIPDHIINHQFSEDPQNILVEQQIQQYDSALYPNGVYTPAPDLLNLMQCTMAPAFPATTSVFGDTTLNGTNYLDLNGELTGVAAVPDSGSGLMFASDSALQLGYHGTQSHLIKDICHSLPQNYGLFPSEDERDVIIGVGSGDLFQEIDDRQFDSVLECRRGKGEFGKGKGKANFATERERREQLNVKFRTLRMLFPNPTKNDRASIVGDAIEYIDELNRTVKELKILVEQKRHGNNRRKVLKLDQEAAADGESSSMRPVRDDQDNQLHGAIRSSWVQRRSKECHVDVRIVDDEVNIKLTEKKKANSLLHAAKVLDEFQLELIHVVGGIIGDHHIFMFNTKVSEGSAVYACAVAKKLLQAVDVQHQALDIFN

B1: transcription factor bHLH142 (other)
chain: MYHPQCELLMPLESLEMDVGQSHLAAAVAAAMPGELNFHLLHSLDAAAAAASSTAASASSQPTVDYFFGGADQQPPPPAAMQYDQLAAPHHHQTVAMLRDYYGGHYPPAAAAAAATEAYFRGGPRTAGSSSLVFGPADDESAFMVGPFESSPTPRSGGGRKRSRATAGFHGGGPANGVEKKEKQRRLRLTEKYNALMLLIPNRTKEDRATVISDAIEYIQELGRTVEELTLLVEKKRRRREMQGDVVDAATSSVVAGMDQAAESSEGEVMAAAAMGAVAPPPRQAPIRSTYIQRRSKETFVDVRIVEDDVNIKLTKRRRDGCLAAASRALDDLRLDLVHLSGGKIGDCHIYMFNTKIHSGSPVFASAVASRLIEVVDEY
notes: Rice bHLH transcription factor as named in general statements and as 35S-driven effector in the EAT1pro-Luc protoplast assay; also called Os01g0293100
B2: NYN1-bHLH142 (other, not shown: large carriers)
chain: B1 chain
notes: BiFC construct expressed in rice protoplasts
B3: ETERNAL TAPETUM 1 (EAT1) (other)
chain: T1 sequence

Experiments:
ETERNAL TAPETUM 1 (EAT1) = target: B3; assay: yeast two-hybrid and BiFC (FIG. 13)
TAPETUM …ON …ON (TDR1) = TAPETUM …ON …ON (TDR1) (Oryza sativa (rice), UniProt Q6YUS3 1-552); assay: cell-based or functional assay
CYN1-EAT1 = target: T1, CYN1-EAT1; assay: BiFC in rice protoplasts

B1 was tested, and the binding result (ETERNAL TAPETUM 1 (EAT1)) was “no binding” and the “Luc expression from the EAT1 promoter (EAT1pro-Luc), transient assay in rice protoplasts” value (TAPETUM …ON …ON (TDR1)) was no more than 30 fold.

B2: no binding (CYN1-EAT1).

In the case of B3, the “Luc expression from the EAT1 promoter (EAT1pro-Luc) with bHLH142, TDR1 and additional EAT1, transient assay in rice protoplasts” value (TAPETUM …ON …ON (TDR1)) is reported as 18 fold.
